In the supplement of paper PMC6379048:

Experiments:
Test in all cases: EC50 of free RNA motif oligo competing protein binding to immobilised probe
HNRNPA1 = HNRNPA1 (UniProt P09651)
Outline: (§1)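 Kd was calculated as EC50, taken from a four-parameter log-logistic fit, multiplied by a protein-dependent depletion factor. The assay used HEK293-FT lysate (2.5 mg protein/well) pre-incubated for 1 h at 4°C with free RNA oligos (0 nM to 30 μM), then incubated for 30 min at 4°C with the matching oligos bound through a 5′-amino-C6 linker to NHS-Sepharose beads. Bound proteins were measured by label-free LC-MS/MS and normalised to the control.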

MRPS9 = MRPS9 (UniProt P82933)
Outline: as §1

DHX37 = target: T1, DHX37 (UniProt Q8IY37)
T1 sequence: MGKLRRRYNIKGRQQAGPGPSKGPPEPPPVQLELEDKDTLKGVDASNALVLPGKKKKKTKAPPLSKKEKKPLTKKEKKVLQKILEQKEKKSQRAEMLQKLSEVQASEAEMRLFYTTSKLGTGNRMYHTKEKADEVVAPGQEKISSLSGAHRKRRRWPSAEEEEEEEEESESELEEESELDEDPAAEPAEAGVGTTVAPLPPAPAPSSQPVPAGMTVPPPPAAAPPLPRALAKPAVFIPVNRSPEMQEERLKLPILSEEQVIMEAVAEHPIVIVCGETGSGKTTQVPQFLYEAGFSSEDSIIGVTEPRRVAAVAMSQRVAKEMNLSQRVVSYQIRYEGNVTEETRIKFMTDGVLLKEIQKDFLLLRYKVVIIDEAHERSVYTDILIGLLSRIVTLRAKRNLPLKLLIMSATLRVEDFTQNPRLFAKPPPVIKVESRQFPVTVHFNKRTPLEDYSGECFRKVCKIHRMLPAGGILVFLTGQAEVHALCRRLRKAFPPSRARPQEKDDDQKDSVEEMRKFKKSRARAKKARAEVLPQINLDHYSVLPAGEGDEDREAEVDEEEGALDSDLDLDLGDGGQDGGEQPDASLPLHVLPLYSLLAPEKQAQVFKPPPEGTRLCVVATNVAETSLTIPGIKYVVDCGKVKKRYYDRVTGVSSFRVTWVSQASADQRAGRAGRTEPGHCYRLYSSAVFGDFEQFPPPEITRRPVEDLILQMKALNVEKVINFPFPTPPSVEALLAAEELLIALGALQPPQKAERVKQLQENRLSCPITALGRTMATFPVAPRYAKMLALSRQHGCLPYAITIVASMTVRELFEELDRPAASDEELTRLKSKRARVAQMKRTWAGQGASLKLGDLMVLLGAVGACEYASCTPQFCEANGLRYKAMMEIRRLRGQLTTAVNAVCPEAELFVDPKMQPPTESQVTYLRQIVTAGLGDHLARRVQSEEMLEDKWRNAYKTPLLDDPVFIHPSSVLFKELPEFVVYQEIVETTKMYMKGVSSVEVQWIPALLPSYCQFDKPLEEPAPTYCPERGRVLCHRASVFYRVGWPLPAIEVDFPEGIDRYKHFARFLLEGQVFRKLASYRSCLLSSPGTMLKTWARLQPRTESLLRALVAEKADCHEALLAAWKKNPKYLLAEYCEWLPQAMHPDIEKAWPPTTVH
Outline: as §1

MRPS31 = MRPS31 (UniProt Q92665)
Outline: as §1

SRSF11 = target: T2, SRSF11 (UniProt Q05519)
T2 sequence: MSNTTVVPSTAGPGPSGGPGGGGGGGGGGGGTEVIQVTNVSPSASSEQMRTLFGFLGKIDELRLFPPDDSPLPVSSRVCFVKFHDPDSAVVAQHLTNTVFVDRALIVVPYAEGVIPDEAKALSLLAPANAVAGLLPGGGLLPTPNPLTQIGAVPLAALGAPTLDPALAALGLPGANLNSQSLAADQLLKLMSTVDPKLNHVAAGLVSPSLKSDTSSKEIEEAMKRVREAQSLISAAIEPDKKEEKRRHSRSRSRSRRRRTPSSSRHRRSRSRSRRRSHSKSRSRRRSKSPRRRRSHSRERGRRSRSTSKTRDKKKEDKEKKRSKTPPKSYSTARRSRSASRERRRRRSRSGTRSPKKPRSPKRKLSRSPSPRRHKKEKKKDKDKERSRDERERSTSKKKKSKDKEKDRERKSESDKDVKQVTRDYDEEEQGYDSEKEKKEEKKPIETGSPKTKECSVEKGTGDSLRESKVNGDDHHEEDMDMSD
Outline: as §1

GPATCH11 = GPATCH11 (UniProt Q8N954)
GPATCH11, sequence (Q8N954 whole entry): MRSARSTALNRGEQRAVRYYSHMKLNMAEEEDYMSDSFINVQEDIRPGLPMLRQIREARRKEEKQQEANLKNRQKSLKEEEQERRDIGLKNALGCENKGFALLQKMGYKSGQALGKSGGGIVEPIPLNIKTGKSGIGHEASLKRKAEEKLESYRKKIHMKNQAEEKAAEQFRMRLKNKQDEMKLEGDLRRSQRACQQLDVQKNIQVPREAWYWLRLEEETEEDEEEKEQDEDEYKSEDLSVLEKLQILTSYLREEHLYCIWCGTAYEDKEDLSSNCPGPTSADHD
Outline: as §1

ZGPAT = target: T3, ZGPAT (UniProt Q8N5A5)
T3 sequence: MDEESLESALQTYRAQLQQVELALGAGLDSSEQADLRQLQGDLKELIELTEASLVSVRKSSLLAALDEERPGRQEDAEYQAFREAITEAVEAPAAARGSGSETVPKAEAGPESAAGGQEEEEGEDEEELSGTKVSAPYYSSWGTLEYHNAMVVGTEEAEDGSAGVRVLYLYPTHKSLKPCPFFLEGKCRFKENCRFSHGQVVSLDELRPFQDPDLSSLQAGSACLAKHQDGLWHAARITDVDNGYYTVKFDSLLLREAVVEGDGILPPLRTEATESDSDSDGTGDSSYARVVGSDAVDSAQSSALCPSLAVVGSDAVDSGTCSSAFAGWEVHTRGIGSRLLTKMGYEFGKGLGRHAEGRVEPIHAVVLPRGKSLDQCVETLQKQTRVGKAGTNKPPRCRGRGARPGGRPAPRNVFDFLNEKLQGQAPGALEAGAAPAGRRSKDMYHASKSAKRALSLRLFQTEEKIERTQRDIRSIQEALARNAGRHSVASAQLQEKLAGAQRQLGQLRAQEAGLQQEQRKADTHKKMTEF
Outline: as §1

HNRNPA1, sequence (P09651 whole entry): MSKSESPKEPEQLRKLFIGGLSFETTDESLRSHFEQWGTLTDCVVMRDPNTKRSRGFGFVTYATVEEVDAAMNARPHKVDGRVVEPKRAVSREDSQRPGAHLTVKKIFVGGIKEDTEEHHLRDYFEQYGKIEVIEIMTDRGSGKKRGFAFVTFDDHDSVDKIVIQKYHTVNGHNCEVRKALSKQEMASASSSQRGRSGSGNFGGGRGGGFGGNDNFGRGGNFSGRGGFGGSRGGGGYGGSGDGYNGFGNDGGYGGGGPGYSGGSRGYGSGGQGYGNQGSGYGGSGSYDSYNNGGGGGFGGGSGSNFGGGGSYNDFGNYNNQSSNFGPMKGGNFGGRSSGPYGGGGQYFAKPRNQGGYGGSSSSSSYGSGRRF

Sequence UAUUUAU has an EC50 (HNRNPA1) of 2950 nM, an EC50 (MRPS9) of 29.4 nM and an EC50 (DHX37) of 4680 nM. It also gave an EC50 (MRPS31) of 93.7 nM.

With AAUAAA the EC50 (SRSF11) was 1110 nM, the EC50 (GPATCH11) was 122 nM and the EC50 (ZGPAT) was 9600 nM.
